# From article doi:10.1101/2023.06.21.545551, “Intrinsically disordered regions in the transcription factor MYC:MAX modulate DNA binding via intramolecular interactions”
# How the values were obtained:
# [1] = molecular target: T1, MYC(151-439);MAX(2-160) of commercial complex (human?;human?, UniProt P01106-1;P61244 ;, |); experiment: SPR; affinity between P3+P6 and full length; SPR: 25 mM HEPES pH 8, 150 mM NaCl, 1 mM TCEP, 0.01% Tween-20, 3 mM EDTA, temperature not stated; NMR: 20 mM HEPES pH 7, 100 mM NaCl (E100; or E300), 2 mM TCEP, 5% D2O, 298 K (complexes) or 283 K (disordered fragments); conditions: protein: commercial;commercial; copies: 1;1; label: 5'-biotin on strand 1; blunt
# [2] = molecular target: T2, MYC(2-439) full-length;MAX(2-160) (human?;human?, UniProt P01106-1;P61244 ;, |); experiment: SPR; range over canonical and mutant E-Boxes; SPR: 25 mM HEPES pH 8, 150 mM NaCl, 1 mM TCEP, 0.01% Tween-20, 3 mM EDTA, temperature not stated; NMR: 20 mM HEPES pH 7, 100 mM NaCl (E100; or E300), 2 mM TCEP, 5% D2O, 298 K (complexes) or 283 K (disordered fragments); conditions: protein: recombinant;recombinant; tags: none;N-Strep-TEV, cleavable; copies: 1;1; label: 5'-biotin on strand 1; blunt
# [3] = molecular target: MYC(352-437);MAX(2-160) co-expressed (human?;human?, UniProt P01106-1;P61244 ;, |); experiment: SPR; strongest of the four DNAs; Kd only in figure; SPR: 25 mM HEPES pH 8, 150 mM NaCl, 1 mM TCEP, 0.01% Tween-20, 3 mM EDTA, temperature not stated; NMR: 20 mM HEPES pH 7, 100 mM NaCl (E100; or E300), 2 mM TCEP, 5% D2O, 298 K (complexes) or 283 K (disordered fragments); conditions: protein: recombinant;recombinant; tags: N-His6 uncleavable;none; copies: 1;1; label: 5'-biotin on strand 1; blunt
# [4] = molecular target: T1, MYC(151-439);MAX(2-160) of commercial …; experiment: SPR; negative control bound only by MYC(352-437):MAX; SPR: 25 mM HEPES pH 8, 150 mM NaCl, 1 mM TCEP, 0.01% Tween-20, 3 mM EDTA, temperature not stated; NMR: 20 mM HEPES pH 7, 100 mM NaCl (E100; or E300), 2 mM TCEP, 5% D2O, 298 K (complexes) or 283 K (disordered fragments); conditions: protein: commercial;commercial; copies: 1;1; label: 5'-biotin on strand 1; blunt
# [5] = molecular target: T2, MYC(2-439) full-length;MAX(2-160); experiment: as above; conditions: protein: recombinant;recombinant; tags: none;N-Strep-TEV, cleavable; copies: 1;1; label: 5'-biotin on strand 1; blunt
# Mb0 peptide MYC(11-34) = Mb0 peptide MYC(11-34) (UniProt P01106-1); experiment: NMR; equimolar DNA; SPR: 25 mM HEPES pH 8, 150 mM NaCl, 1 mM TCEP, 0.01% Tween-20, 3 mM EDTA, temperature not stated; NMR: 20 mM HEPES pH 7, 100 mM NaCl (E100; or E300), 2 mM TCEP, 5% D2O, 298 K (complexes) or 283 K (disordered fragments); conditions: protein: recombinant; tags: His6-MBP-TEV cleaved; 13C-MTC on C25; blunt
# [6] = molecular target: MYC(1-439)_C0,C25;MAX(2-160) (human?;human?, UniProt P01106-1;P61244 ;, C70A;C117A;C133A;C171A;C188A;C208A;C300A;C342A;C438A|); experiment: NMR; 13C-MTC on C25; 10-fold DNA; SPR: 25 mM HEPES pH 8, 150 mM NaCl, 1 mM TCEP, 0.01% Tween-20, 3 mM EDTA, temperature not stated; NMR: 20 mM HEPES pH 7, 100 mM NaCl (E100; or E300), 2 mM TCEP, 5% D2O, 298 K (complexes) or 283 K (disordered fragments); conditions: protein: recombinant;recombinant; tags: 13C-MTC label on C25;N-Strep-TEV, cleavable; copies: 1;1; blunt
# MYC(256-299) = MYC(256-299) (UniProt P01106-1); experiment: NMR; SPR: 25 mM HEPES pH 8, 150 mM NaCl, 1 mM TCEP, 0.01% Tween-20, 3 mM EDTA, temperature not stated; NMR: 20 mM HEPES pH 7, 100 mM NaCl (E100; or E300), 2 mM TCEP, 5% D2O, 298 K (complexes) or 283 K (disordered fragments); conditions: protein: recombinant; tags: His6-ZZ-TEV cleaved; 15N; blunt
# MYC(256-299), sequence (P01106 other isoform, or with tags, fused parts or gaps): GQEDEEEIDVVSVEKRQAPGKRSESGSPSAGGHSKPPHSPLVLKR
# T2 sequence (P01106 17-454, chain 1 of 2): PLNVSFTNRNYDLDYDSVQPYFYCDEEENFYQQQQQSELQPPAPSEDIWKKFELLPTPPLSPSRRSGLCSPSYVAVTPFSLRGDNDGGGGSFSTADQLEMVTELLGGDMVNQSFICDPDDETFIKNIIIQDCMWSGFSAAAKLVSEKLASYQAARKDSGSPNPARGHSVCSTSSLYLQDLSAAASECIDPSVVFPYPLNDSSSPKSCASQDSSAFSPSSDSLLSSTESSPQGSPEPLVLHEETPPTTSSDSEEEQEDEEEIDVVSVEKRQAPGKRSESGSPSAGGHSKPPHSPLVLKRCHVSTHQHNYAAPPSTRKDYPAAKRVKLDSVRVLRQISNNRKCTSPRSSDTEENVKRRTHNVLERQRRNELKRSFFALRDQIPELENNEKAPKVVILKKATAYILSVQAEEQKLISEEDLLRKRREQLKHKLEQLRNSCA
# T2 sequence (P61244 other isoform, or with tags, fused parts or gaps |, chain 2 of 2): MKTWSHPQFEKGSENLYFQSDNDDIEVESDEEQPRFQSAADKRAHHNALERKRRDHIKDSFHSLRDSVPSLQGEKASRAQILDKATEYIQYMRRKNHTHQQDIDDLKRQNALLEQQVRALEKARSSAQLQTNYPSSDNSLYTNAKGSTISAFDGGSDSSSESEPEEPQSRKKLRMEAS
# T1 sequence (P01106 166-454, chain 1 of 2): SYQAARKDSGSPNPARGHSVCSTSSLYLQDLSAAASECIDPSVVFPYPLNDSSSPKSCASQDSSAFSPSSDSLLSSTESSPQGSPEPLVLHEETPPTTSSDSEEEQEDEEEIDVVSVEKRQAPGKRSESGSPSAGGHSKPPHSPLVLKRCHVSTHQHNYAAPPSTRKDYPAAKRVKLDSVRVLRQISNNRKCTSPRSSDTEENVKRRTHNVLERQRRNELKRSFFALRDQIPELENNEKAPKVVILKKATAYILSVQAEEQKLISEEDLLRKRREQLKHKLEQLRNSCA
# T1 sequence (P61244 other isoform, or with tags, fused parts or gaps |, chain 2 of 2): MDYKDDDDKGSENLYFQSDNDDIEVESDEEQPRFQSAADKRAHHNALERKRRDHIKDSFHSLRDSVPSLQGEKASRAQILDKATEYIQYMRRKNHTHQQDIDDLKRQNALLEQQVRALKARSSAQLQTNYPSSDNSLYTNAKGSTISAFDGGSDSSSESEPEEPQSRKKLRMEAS
# Mb0 peptide MYC(11-34), sequence (P01106 other isoform, or with tags, fused parts or gaps): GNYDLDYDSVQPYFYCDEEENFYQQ
# MYC(352-437);MAX(2-160) co-expressed, sequence (P01106 other isoform, or with tags, fused parts or gaps |, chain 1 of 2): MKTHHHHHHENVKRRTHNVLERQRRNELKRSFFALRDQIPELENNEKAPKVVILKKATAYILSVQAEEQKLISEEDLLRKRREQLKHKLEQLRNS
# MYC(352-437);MAX(2-160) co-expressed, sequence (P61244 whole entry, chain 2 of 2, the tested form may be a part): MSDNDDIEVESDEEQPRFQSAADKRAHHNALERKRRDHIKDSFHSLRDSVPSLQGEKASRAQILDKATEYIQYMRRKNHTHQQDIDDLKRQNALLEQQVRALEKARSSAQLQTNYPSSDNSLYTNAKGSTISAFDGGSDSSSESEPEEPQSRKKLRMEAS
# MYC(1-439)_C0,C25;MAX(2-160), sequence (P01106 other isoform, or with tags, fused parts or gaps C70A;C117A;C133A;C171A;C188A;C208A;C300A;C342A;C438A|, chain 1 of 2): as the sequence (P01106 17-454, chain 1 of 2) above, with C24A, C69A, C116A, C132A, C170A, C187A, C207A, C299A, C341A, C437A counted along it
binder,measurement,setting,value
E-Box (SPR) (dsDNA) DNA 1: CCGGTCACGTGGCCTA DNA 2: TAGGCCACGTGACCGG,binding result,[1],binds
same,binding result,[2],binds
same,binding result,[3],binds
Negative control (dsDNA) DNA 1: CCGGTTTAGCAGCCTA DNA 2: TAGGCTGCTAAACCGG,binding result,[4],no binding
same,binding result,[5],no binding
E-Box (NMR) (dsDNA) DNA 1: CCGGTCACGTGGCCTA DNA 2: TAGGCCACGTGACCGG,binding result,Mb0 peptide MYC(11-34),no binding
same,binding result,[6],binds
same,binding result,MYC(256-299),no binding
